“And” between values parts separate entries of the source, which are not always exact repeats. Equal entries are not always repeated.
Experiments:
[1] = molecular target: H257A/Q286R/M298Q-FVIIa (human)
[2] = molecular target: T128N/P129A/V158D/E296V/M298Q-FVIIa (human)
[3] = molecular target: H257A/Q286R-FVIIa (human)
[4] = molecular target: Gla swap FIX/A122N/G124S/A175S/S222A/Q286R-FVIIa (human)
[5] = molecular target: S119N/L121S/A175S-FVIIa (human)
wild-type FVIIa (human) [6] = molecular target: wild-type FVIIa (human)
[7] = molecular target: Gla swap FIX/S52A/S60A/Q286R/M298Q-FVIIa (human)
[8] = molecular target: A122N/G124S/A175S/S222A-FVIIa (human)
[9] = molecular target: {Gla swap FIX/E40L}/Q286R/M298Q-FVIIa (human)
[10] = molecular target: T128N/P129A/A175S/S222A/H257A/Q286R/M298Q-FVIIa (human)
[11] = molecular target: S222A/T239V/H257A/Q286R/M298Q-FVIIa (human)
[12] = molecular target: Gla swap FIX/T128N/P129A/Q286R/M298Q-FVIIa (human)
[13] = molecular target: T128N/P129A/A175S/Q286R-FVIIa (human)
[14] = molecular target: V158D/Q286R/E296V/M298Q-FVIIa (human)
[15] = molecular target: T128N/P129A/Q286R/M298Q/Q366N/H373F-FVIIa (human)
[16] = molecular target: S222A/H257A/Q286R/M298Q-FVIIa (human)
[17] = molecular target: Gla swap FIX/S222A/Q286R/M298Q-FVIIa (human)
[18] = molecular target: {Gla swap FIX/Q44S}/Q286R/M298Q-FVIIa (human)
[19] = molecular target: A122N/G124S/A175S/Q286R/M298Q/H373F-FVIIa (human)
[20] = molecular target: T128N/P129A/T239V/Q286R/M298Q-FVIIa (human)
[21] = molecular target: T128N/P129A/T239I/Q286R/M298Q/H373F-FVIIa (human)
[22] = molecular target: Gla swap FIX/T239V/Q286R/M298Q-FVIIa (human)
[23] = molecular target: T128N/P129A/A175S/S222A-FVIIa (human)
[24] = molecular target: {Gla swap FIX/K43I}/Q286R/M298Q/Q366N-FVIIa (human)
[25] = molecular target: T239I/Q286R-FVIIa (human)
[26] = molecular target: {Gla swap FIX/K43I}/T128N/P129A/Q286R/M298Q/Q366N-FVIIa (human)
[27] = molecular target: S52A/S60A/S222A/H257A/Q286R/M298Q-FVIIa (human)
[28] = molecular target: T239I/Q286R/M298Q/H373F-FVIIa (human)
[29] = molecular target: Gla swap FIX-FVIIa (human)
[30] = molecular target: T239V/Q286R/M298Q/Q366N-FVIIa (human)
[31] = molecular target: T239V/Q286R/H373F-FVIIa (human)
[32] = molecular target: Q286R/H373F-FVIIa (human)
[33] = molecular target: Gla swap FIX/T128N/P129A/A175S/S222A/Q286R-FVIIa (human)
[34] = molecular target: GlaSwapFIX/S222A/T239I/Q286R-FVIIa (human)
[35] = molecular target: S222A/Q286R/M298Q-FVIIa (human)
[36] = molecular target: T128N/P129A/M298Q-FVIIa (human)
[37] = molecular target: T128N/P129A/Q286R-FVIIa (human)
[38] = molecular target: T128N/P129A/T239V/Q286R/M298Q/H373F-FVIIa (human)
[39] = molecular target: T128N/P129A/A175S/Q366V-FVIIa (human)
[40] = molecular target: T128N/P129A/S222A/T239V/H257A/Q286R/M298Q-FVIIa (human)
[41] = molecular target: V158D/T239V/E296V/M298Q-FVIIa (human)
[42] = molecular target: A122N/G124S/A175S/S222A/H257A/Q286R/M298Q-FVIIa (human)
[43] = molecular target: S222A/H257A/Q286R-FVIIa (human)
[44] = molecular target: Q286R/M298Q-FVIIa (human)
[45] = molecular target: A122N/G124S/A175S/Q286R-FVIIa (human)
[46] = molecular target: A122N/G124S/A175S/Q286R/M298Q-FVIIa (human)
[47] = molecular target: S222A/T239I/H257A/Q286R/M298Q-FVIIa (human)
[48] = molecular target: {Gla swap FIX/M19K/E40L/K43I/Q44S}/Q286R/M298Q-FVIIa (human)
[49] = molecular target: Gla swap FIX/S222A/Q286R/H373F-FVIIa (human)
[50] = molecular target: T128N/P129A/A175S-FVIIa (human)
wild-type FVIIa (human) [51] = molecular target: wild-type FVIIa (human); remark: listed apart in the source
wild-type FVIIa (human) [52] = molecular target: wild-type FVIIa (human); remark: listed apart in the source

Sequence of antithrombin III (P01008 33-464): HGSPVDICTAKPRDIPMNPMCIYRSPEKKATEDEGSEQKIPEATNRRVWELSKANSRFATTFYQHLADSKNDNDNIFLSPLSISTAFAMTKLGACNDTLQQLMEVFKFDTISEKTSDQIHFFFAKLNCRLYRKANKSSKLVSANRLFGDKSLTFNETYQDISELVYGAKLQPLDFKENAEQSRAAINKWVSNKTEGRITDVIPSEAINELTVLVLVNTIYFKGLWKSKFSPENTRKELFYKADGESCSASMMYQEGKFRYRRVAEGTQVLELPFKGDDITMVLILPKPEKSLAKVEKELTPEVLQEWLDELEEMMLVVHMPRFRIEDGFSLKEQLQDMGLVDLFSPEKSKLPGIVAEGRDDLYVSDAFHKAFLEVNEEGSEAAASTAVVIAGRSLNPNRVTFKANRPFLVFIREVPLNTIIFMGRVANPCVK

antithrombin III
K0.5 [1]: 391 nM
K0.5 [2]: 81.6 nM
K0.5 [3]: 2800 nM
K0.5 (S222A-FVIIa (human)): 384 nM
K0.5 (K109N-FVIIa (human)): 330 nM
K0.5 [4]: 5.52 µM
K0.5 [5]: 1640 nM
K0.5 (wild-type FVIIa (human) [6]): 394 nM and 503 nM
K0.5 [7]: 254 nM
K0.5 [8]: 1550 nM
K0.5 [9]: 287 nM
K0.5 [10]: 3.21 µM
K0.5 [11]: 469 nM
K0.5 [12]: 508 nM and 325 nM
K0.5 [13]: 9.55 µM
K0.5 [14]: 85 nM
K0.5 [15]: 148 nM
K0.5 [16]: 314 nM
K0.5 [17]: 266 nM
K0.5 [18]: 271 nM
K0.5 [19]: 1000 nM
K0.5 [20]: 266 nM
K0.5 [21]: 317 nM
K0.5 [22]: 484 nM and 314 nM
K0.5 [23]: 1910 nM
K0.5 [24]: 404 nM
K0.5 [25]: 5.82 µM
K0.5 [26]: 319 nM
K0.5 [27]: 448 nM
K0.5 [28]: 370 nM
K0.5 [29]: 299 nM
K0.5 [30]: 252 nM
K0.5 [31]: 631 nM
K0.5 [32]: 621 nM
K0.5 [33]: 6.49 µM
K0.5 [34]: 3.31 µM
K0.5 [35]: 308 nM
K0.5 [36]: 144 nM
K0.5 [37]: 1650 nM and 1740 nM
K0.5 [38]: 121 nM
K0.5 [39]: 333 nM
K0.5 [40]: 326 nM
K0.5 [41]: 67.7 nM and 67.1 nM
K0.5 [42]: 2970 nM
K0.5 [43]: 2590 nM
K0.5 [44]: 299 nM and 287 nM and 395 nM
K0.5 [45]: 6.92 µM
K0.5 [46]: 1950 nM
K0.5 [47]: 1220 nM
K0.5 [48]: 339 nM
K0.5 [49]: 587 nM
K0.5 [50]: 1390 nM
K0.5, TF-independent, FVIIa from 293-F cells (wild-type FVIIa (human) [51]): 2260 nM
K0.5 mut/K0.5 wt, TF-independent, 293-F cells (wild-type FVIIa (human) [51]): 1
K0.5 mut/K0.5 wt, TF-independent, BHK-21 cells (wild-type FVIIa (human) [51]): 1
K0.5, TF-dependent, FVIIa from 293-F cells (wild-type FVIIa (human) [52]): 72.3 nM
K0.5, TF-dependent, FVIIa from BHK-21 cells (wild-type FVIIa (human) [52]): 56 nM
K0.5 mut/K0.5 wt, TF-dependent, 293-F cells (wild-type FVIIa (human) [52]): 1
K0.5 mut/K0.5 wt, TF-dependent, BHK-21 cells (wild-type FVIIa (human) [52]): 1

— patent publication US20090291890A1 (published 2009)
